The values that follow come from doi:10.1101/2025.05.22.655505 (bioRxiv, 2025).

The target of assay [1] is Mpox A28 (OPG153), residues 2-361, recombinant antigen (Monkeypox virus; template GenBank …, UniProt A0A7H0DNC4). Briefly: ELISA.
The target in assay [2] is VACV A26 (OPG153), residues 2-361, recombinant antigen (Vaccinia virus strain IHDW (GenBank …, UniProt P24758, strain)). The experiment in a line: ELISA.

B1: 10M2146, human anti-A28 monoclonal antibody, IgG1 (antibody, V domains shown)
VH: EVQLVQSGAEVKKPGESLKISCKGSGYSFTTHWIGWVRQMPGEGLEWLGIIYPGDSETKYSPSFQGQVTISVDKSINTAYLHWSSLKASDTAMYFCARRPKNYYDASGYYNWLDPWGQGTLVTVSS
VL: EIQMTQSPSTLSASVGDRVTITCRASQSLSTWLAWYQQKPGKAPKLLIYKASILESGVPSRFSASGSGTEFTLTISGLQPDDFATYYCQQYNSYLGAFGQGTKVEIK
As to B1, the binding result in assay [1] and in assay [2] was “binds” throughout.
